Non-standard residues stand in square brackets, D forms with d. No end group written: not given here. 2Nal = N[C@@H](Cc1ccc2ccccc2c1)C(=O)O; 2Thi = N[C@@H](Cc1cccs1)C(=O)O; β3hL = CC(C)C[C@H](N)CC(=O)O; Nle = CCCC[C@H](N)C(=O)O; βAla = NCCC(=O)O
Experiments:
[1] = target: T1, recombinant hPTH1-receptor (human, UniProt Q03431 27-593); test: cell-based or functional assay
T1 sequence (looked up): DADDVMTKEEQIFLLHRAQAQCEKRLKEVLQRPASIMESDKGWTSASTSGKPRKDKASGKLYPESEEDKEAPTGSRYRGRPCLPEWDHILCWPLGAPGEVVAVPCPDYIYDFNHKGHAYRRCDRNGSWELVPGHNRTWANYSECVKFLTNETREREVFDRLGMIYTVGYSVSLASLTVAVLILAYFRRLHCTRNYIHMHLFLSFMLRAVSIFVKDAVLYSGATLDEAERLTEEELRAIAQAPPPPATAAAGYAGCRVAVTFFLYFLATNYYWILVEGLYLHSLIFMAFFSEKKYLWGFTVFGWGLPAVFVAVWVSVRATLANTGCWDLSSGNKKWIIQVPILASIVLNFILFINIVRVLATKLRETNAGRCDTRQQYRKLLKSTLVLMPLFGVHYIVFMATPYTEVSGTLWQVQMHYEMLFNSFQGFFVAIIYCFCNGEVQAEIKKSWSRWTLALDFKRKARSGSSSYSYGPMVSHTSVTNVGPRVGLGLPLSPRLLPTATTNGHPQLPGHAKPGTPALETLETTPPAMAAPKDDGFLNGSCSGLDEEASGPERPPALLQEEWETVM

[2] = target: T2, PTH receptor on SaOS-2/B10 cells (UniProt Q03431 27-593); test: competition with mono-125I-[Nle8,18,Tyr34]bPTH(1-34)NH2 on SaOS-2/B10 cells
T2 construct: whole, on cells; also called PTH/PTHrP receptor
T2 sequence (looked up): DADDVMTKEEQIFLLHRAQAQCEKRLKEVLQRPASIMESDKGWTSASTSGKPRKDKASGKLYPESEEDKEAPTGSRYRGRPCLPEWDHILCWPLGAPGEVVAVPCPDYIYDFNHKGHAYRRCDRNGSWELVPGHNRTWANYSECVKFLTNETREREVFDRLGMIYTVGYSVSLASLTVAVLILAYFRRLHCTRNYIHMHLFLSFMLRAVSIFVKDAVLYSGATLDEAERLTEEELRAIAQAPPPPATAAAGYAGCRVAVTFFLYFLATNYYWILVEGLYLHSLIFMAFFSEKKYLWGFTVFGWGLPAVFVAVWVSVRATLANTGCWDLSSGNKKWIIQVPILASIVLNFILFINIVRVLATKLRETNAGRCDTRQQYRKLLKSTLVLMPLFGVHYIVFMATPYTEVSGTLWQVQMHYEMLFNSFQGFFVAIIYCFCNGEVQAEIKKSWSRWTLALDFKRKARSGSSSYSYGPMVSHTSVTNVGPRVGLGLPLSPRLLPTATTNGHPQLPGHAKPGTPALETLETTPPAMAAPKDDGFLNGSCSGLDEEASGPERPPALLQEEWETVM
Experimental: SaOS-2/B10 cells were maintained for four days after they had reached confluence. The medium was replaced with 5% FBS […] medium and incubated for 2 hrs at room temperature with 10×10⁴ cpm mono-¹²⁵I-[Nle^{8,18},Tyr³⁴(3-¹²⁵I)]bPTH(1-34)NH₂ in the presence or absence of a competing tested polypeptide of the invention. The cells were washed four times with ice-cold PBS and lysed with 0.1M NaOH, and the radioactivity associated with the cells was counted in a scintillation counter. Synthesis of the radiolabelled [Nle^{8,18},Tyr³⁴(3-¹²⁵I)]bPTH(1-34)NH₂ was carried out as described in Goldman M. E., et al., Endocrinology, (1988), 123, 1468-1475.
The binding assay was conducted on the polypeptides of the invention having SEQ ID NO:5, 6, 7, 9, 10, 11, and 12.

[3] = target: T2, PTH receptor on SaOS-2/B10 cells; test: cell-based or functional assay
[4] = target: T1, recombinant hPTH1-receptor; test: competition with 125I-[Nle8,18,Nal23,Tyr34]bPTH(1-34)NH2 on HEK293/C21 cells with hPTH1-receptor
Experimental: Human embryonic kidney (HEK293) cells, stably transfected with recombinant hPTH1-receptor (HEK293/C21 cell line, ˜400,000 receptors/cell) (Pines, M., Adams, A. E., Stueckle, S., Bessalle, R., Rashti-Behar, V., Chorev, M., Rosenblatt, M., and Suva, L. J. Endocrinology 1994, 135, 1713-1716), were maintained in D-MEM medium supplemented with 10% fetal bovine serum and […] glutamine at 37° C. in a humidified atmosphere of 95% air/5% CO₂. The medium was changed every 3-4 days, and the cells were subcultured every week. Ligand stimulated adenylyl cyclase activity and radioreceptor competition binding assays were performed on confluent cultures, 1-3 days after a change of medium.
[Nle^{8,18},Nal²³,Tyr³⁴]bPTH(1-34)-NH₂ was radioiodinated and the crude material was purified as previously described (Roubini, E., Duong, L. T., Gibbons, S. W., Leu, C. T., Caulfield, M. P., Chorev, M., and Rosenblatt, M. Biochemistry 1992, 31, 4026-4033). Briefly, 67 μg of peptide in 50 μL phosphate buffer, pH 7.4, in a borosilicate tube, coated with 10 μg Iodogen® (Pierce Chemical), were treated at room temperature with 2 mCi [¹²⁵I]Na for 12 min, followed by dilution with 200 μL of 0.1% TFA in water.
Cells were plated in 24-well tissue culture dishes (Corning Glass Works, Corning, N.Y.) and grown to subconfluency. […] After incubation, cells were washed twice with PBS and lysed with 0.1 M NaOH. Radioactivity in the lysate was measured in a γ-counter (Analytic GammaTrac™ 1193).

Molecule	EC50 (half maximal stimulation of adenylate cyclase) [1]	IC50 [2]	EC50 (half maximal stimulation of adenylate cyclase) [3]	IC50 [4]
[Nle^8, β-Ala^18,19, Nal^23, Tyr^34]bPTH(1-34)NH2 (peptide)	13.8 nM	–	–	–
SVSEIQLMHNLGKHLNSMERVELLEKLLEKLHNF-NH2 (Synthetic analog of human PTH(1-34), carboxamide at the C-terminus) [[Glu^25,29, Leu^23,27,31, Lys^30]hPTH(1-34)NH2]	–	216 nM	24 nM	–
SVSEIQLMHNLGKHLNSMERVEWLEKKLEKVHNF-NH2 (Synthetic analog of human PTH(1-34), carboxamide at the C-terminus) [[Glu^25,29, Lys^30]hPTH(1-34)NH2]	–	30 nM	25.5 nM	–
SVSEIQLMHNLGKHLNSMERVELLRKLLQDLHNF-NH2 (Synthetic analog of human PTH(1-34), carboxamide at the C-terminus) [[Leu^23,27,31]hPTH(1-34)NH2]	–	41 nM	1.12 nM	–
AVSEIQF[Nle]HNLGKHLSS[Nle][βAla]RVE[2Nal]LRKKLQDVHNY-NH2 (N-terminus assumed; SMILES CCCC[C@H](NC(=O)[C@H](CO)NC(=O)[C@H](CO)NC(=O)[C@H](CC(C)C)NC(=O)[C@H](Cc1c[nH]cn1)NC(=O)[C@H](CCCCN)NC(=O)CNC(=O)[C@H](CC(C)C)NC(=O)[C@H](CC(N)=O)NC(=O)[C@H](Cc1c[nH]cn1)NC(=O)[C@H](CCCC)NC(=O)[C@H](Cc1ccccc1)NC(=O)[C@H](CCC(N)=O)NC(=O)[C@@H](NC(=O)[C@H](CCC(=O)O)NC(=O)[C@H](CO)NC(=O)[C@@H](NC(=O)[C@H](C)N)C(C)C)[C@@H](C)CC)C(=O)NCCC(=O)N[C@@H](CCCNC(=N)N)C(=O)N[C@H](C(=O)N[C@@H](CCC(=O)O)C(=O)N[C@@H](Cc1ccc2ccccc2c1)C(=O)N[C@@H](CC(C)C)C(=O)N[C@@H](CCCNC(=N)N)C(=O)N[C@@H](CCCCN)C(=O)N[C@@H](CCCCN)C(=O)N[C@@H](CC(C)C)C(=O)N[C@@H](CCC(N)=O)C(=O)N[C@@H](CC(=O)O)C(=O)N[C@H](C(=O)N[C@@H](Cc1c[nH]cn1)C(=O)N[C@@H](CC(N)=O)C(=O)N[C@@H](Cc1ccc(O)cc1)C(N)=O)C(C)C)C(C)C, Synthetic analog of bovine PTH(1-34), carboxamide at the C-terminus) [[Nle^8,18, β-Ala^19, Nal^23, Tyr^34]bPTH(1-34)NH2]	1.51 nM	–	–	59 nM
AVSEIQF[Nle]HNLGKHLSS[β3hL][βAla]RVE[2Nal]LRKKLQDVHNY-NH2 (N-terminus assumed; SMILES CCCC[C@H](NC(=O)[C@H](Cc1ccccc1)NC(=O)[C@H](CCC(N)=O)NC(=O)[C@@H](NC(=O)[C@H](CCC(=O)O)NC(=O)[C@H](CO)NC(=O)[C@@H](NC(=O)[C@H](C)N)C(C)C)[C@@H](C)CC)C(=O)N[C@@H](Cc1c[nH]cn1)C(=O)N[C@@H](CC(N)=O)C(=O)N[C@@H](CC(C)C)C(=O)NCC(=O)N[C@@H](CCCCN)C(=O)N[C@@H](Cc1c[nH]cn1)C(=O)N[C@@H](CC(C)C)C(=O)N[C@@H](CO)C(=O)N[C@@H](CO)C(=O)N[C@H](CC(=O)NCCC(=O)N[C@@H](CCCNC(=N)N)C(=O)N[C@H](C(=O)N[C@@H](CCC(=O)O)C(=O)N[C@@H](Cc1ccc2ccccc2c1)C(=O)N[C@@H](CC(C)C)C(=O)N[C@@H](CCCNC(=N)N)C(=O)N[C@@H](CCCCN)C(=O)N[C@@H](CCCCN)C(=O)N[C@@H](CC(C)C)C(=O)N[C@@H](CCC(N)=O)C(=O)N[C@@H](CC(=O)O)C(=O)N[C@H](C(=O)N[C@@H](Cc1c[nH]cn1)C(=O)N[C@@H](CC(N)=O)C(=O)N[C@@H](Cc1ccc(O)cc1)C(N)=O)C(C)C)C(C)C)CC(C)C, Synthetic analog of bovine PTH(1-34), carboxamide at the C-terminus) [[Nle^8, β-hLeu^18, β-Ala^19, Nal^23, Tyr^34]bPTH(1-34)NH2]	2.73 nM	–	–	117 nM
AVSEIQF[Nle]HNLGKHLS[βAla][β3hL][βAla]RVE[2Nal]LRKKLQDVHNY-NH2 (N-terminus assumed; SMILES CCCC[C@H](NC(=O)[C@H](Cc1ccccc1)NC(=O)[C@H](CCC(N)=O)NC(=O)[C@@H](NC(=O)[C@H](CCC(=O)O)NC(=O)[C@H](CO)NC(=O)[C@@H](NC(=O)[C@H](C)N)C(C)C)[C@@H](C)CC)C(=O)N[C@@H](Cc1c[nH]cn1)C(=O)N[C@@H](CC(N)=O)C(=O)N[C@@H](CC(C)C)C(=O)NCC(=O)N[C@@H](CCCCN)C(=O)N[C@@H](Cc1c[nH]cn1)C(=O)N[C@@H](CC(C)C)C(=O)N[C@@H](CO)C(=O)NCCC(=O)N[C@H](CC(=O)NCCC(=O)N[C@@H](CCCNC(=N)N)C(=O)N[C@H](C(=O)N[C@@H](CCC(=O)O)C(=O)N[C@@H](Cc1ccc2ccccc2c1)C(=O)N[C@@H](CC(C)C)C(=O)N[C@@H](CCCNC(=N)N)C(=O)N[C@@H](CCCCN)C(=O)N[C@@H](CCCCN)C(=O)N[C@@H](CC(C)C)C(=O)N[C@@H](CCC(N)=O)C(=O)N[C@@H](CC(=O)O)C(=O)N[C@H](C(=O)N[C@@H](Cc1c[nH]cn1)C(=O)N[C@@H](CC(N)=O)C(=O)N[C@@H](Cc1ccc(O)cc1)C(N)=O)C(C)C)C(C)C)CC(C)C) [[Nle^8, β-Ala^17,19, β-hLeu^18, Nal^23, Tyr^34]bPTH(1-34)NH2]	9.97 nM	–	–	–
AVSEHQLLHDKGKSIQDLRRRELLEKLLEKL[2Thi]TA-NH2 (N-terminus assumed; SMILES CC[C@H](C)[C@H](NC(=O)[C@H](CO)NC(=O)[C@H](CCCCN)NC(=O)CNC(=O)[C@H](CCCCN)NC(=O)[C@H](CC(=O)O)NC(=O)[C@H](Cc1c[nH]cn1)NC(=O)[C@H](CC(C)C)NC(=O)[C@H](CC(C)C)NC(=O)[C@H](CCC(N)=O)NC(=O)[C@H](Cc1c[nH]cn1)NC(=O)[C@H](CCC(=O)O)NC(=O)[C@H](CO)NC(=O)[C@@H](NC(=O)[C@H](C)N)C(C)C)C(=O)N[C@@H](CCC(N)=O)C(=O)N[C@@H](CC(=O)O)C(=O)N[C@@H](CC(C)C)C(=O)N[C@@H](CCCNC(=N)N)C(=O)N[C@@H](CCCNC(=N)N)C(=O)N[C@@H](CCCNC(=N)N)C(=O)N[C@@H](CCC(=O)O)C(=O)N[C@@H](CC(C)C)C(=O)N[C@@H](CC(C)C)C(=O)N[C@@H](CCC(=O)O)C(=O)N[C@@H](CCCCN)C(=O)N[C@@H](CC(C)C)C(=O)N[C@@H](CC(C)C)C(=O)N[C@@H](CCC(=O)O)C(=O)N[C@@H](CCCCN)C(=O)N[C@@H](CC(C)C)C(=O)N[C@@H](Cc1cccs1)C(=O)N[C@H](C(=O)N[C@@H](C)C(N)=O)[C@@H](C)O, Synthetic analog of human PTHrP(1-34), carboxamide at the C-terminus) [[Glu^22,25,29, Leu^23,28,31, Lys^26,30, Thi^32]hPTHrP(1-34)NH2]	–	90 nM	10 nM	–
AVSEHQLLHDKGKSIQDLRRRELLEKLLELLHTA-NH2 (Synthetic analog of human PTHrP(1-34), carboxamide at the C-terminus) [[Glu^22,25,29, Leu^23,28,30,31, Lys^26]hPTHrP(1-34)NH2]	–	70 nM	5 nM	–
AVSEHQLLHDKGKSIQDLRRRFLLHHLLAELHTA-NH2 (Synthetic analog of human PTHrP(1-34), carboxamide at the C-terminus) [[Leu^23,28,31]hPTHrP(1-34)NH2]	–	18.3 nM	0.74 nM	–
AVSEHQLLHDKGKSIQDLRRREFLEKLIEKIHTA-NH2 (Synthetic analog of human PTHrP(1-34), carboxamide at the C-terminus) [[Glu^22,25,29, Lys^26,30]hPTHrP(1-34)NH2]	–	5.5 nM	0.42 nM	–

From patent publication US20060058230A1 (published 2006)
